B1: BMP4: Bone Morphogenetic Protein 4, member of the TGFβ superfamily (protein, UniProt P12644 293-408, looked up)
Bone morphogenetic protein 4: SPKHHSQRARKKNKNCRRHSLYVDFSDVGWNDWIVAPPGYQAFYCHGDCPFPLADHLNSTNHAIVQTLVNSVNSSIPKACCVPTELSAISMLYLDEYDKVVLKNYQEMVVEGCGCR
B2: BMP7: Bone Morphogenetic Protein 7, member of the TGFβ superfamily (protein, UniProt P18075 293-431, looked up)
Bone morphogenetic protein 7: STGSKQRSQNRSKTPKNQEALRMANVAENSSSDQRQACKKHELYVSFRDLGWQDWIIAPEGYAAYYCEGECAFPLNSYMNATNHAIVQTLVHFINPETVPKPCCAPTQLNAISVLYFDDSSNVILKKYRNMVVRACGCH

Tested on: hES cell-derived clonal embryonic progenitor cell lines
Assay: Differentiation of clonal embryonic progenitor cell lines into BAT cells in HyStem beads, marker expression by Illumina microarray / qPCR
Format: cell-based, human
Conditions: 10 ng/mL BMP4 or 100 ng/mL BMP7 added to rosiglitazone/T3/CL-316,243 differentiation in HyStem beads
Procedure: Then, HyStem (1 ml, 1% w/v) is mixed with Gelin-S (1 ml, 1% w/v) immediately before use. […] Following complete gelation (20 min), Differentiation Medium is added to each well. […] Plates were then placed in a humidified incubator at 37° C. with ambient O2 and 10% CO2, and the cells were fed three-times weekly.
Total RNA was extracted directly from cells growing in 6-well plates or 10 cm tissue culture dishes using Qiagen RNeasy mini kits according to the manufacturer's instructions. RNA concentrations were measured using a Beckman DU530 or Nanodrop spectrophotometer and RNA quality was determined by denaturing agarose gel electrophoresis or using an Agilent 2100 bioanalyzer. […] Values of less than 120 relative fluorescence units (RFUs) were considered as nonspecific background signal.

Molecule	cell viability
B1	greater levels of cell viability
B2	greater levels of cell viability

From patent publication US12404493B2, “Methods for the re-derivation of diverse pluripotent stem cell-derived brown fat cells” (AgeX Therapeutics, Inc., priority 2015, dated 2025)
